Changes are numbered by the printed parent chain.

The values below come from patent US20250188176A1.

The target in the test is canine IL-4RA (construct not given) (canine). The test is described as follows: SPR, combinatorial Fab-SASA clone.

B1: AHF21184 (Fab, V domains shown, not shown: small tags and cut ends)
VH: EVQLVESGGDLVKPGGSLRLSCVASGFTFRDYAMTWVRQAPGKGLQWVSLISGSGGKTYYADAVKGRFTISRDNAKNTLYLQMNSLRAEDTAVYYCAVDRLTKTIRPQYYGLWHWGQGTLVTVSS
VL: DIVMTQTPLSLSVSPGETASISCRSSQSLLYSIGYNYLDWYLQKPGQSPQGLIYLGSKRASGVPDRFSGSGSGTDFTLRISRVEANDTGVYYCMQGLQSPLSFGQGTKLEIKR
As to B1, the equilibrium dissociation constant (Kd) was found to be 1.89 nM, the off-rate (koff) came out at 0.000543 s⁻¹ and the on-rate (kon) is 287000 M⁻¹ s⁻¹.

B2: AHF21191 (Fab, V domains shown, not shown: small tags and cut ends)
VH: B1 VH with S52N
VL: B1 VL with L30T, S102G
As to B2, the dissociation constant Kd stood at 0.366 nM, the koff was found to be 9.48e-05 s⁻¹ and the kon is 259000 M⁻¹ s⁻¹.

B3: AHF21188 (Fab, V domains shown, not shown: small tags and cut ends)
VH: B1 VH
VL: B1 VL with L30T, S102G
Take B3: the Kd was found to be 0.857 nM, the koff is 0.000278 s⁻¹ and the kon was 325000 M⁻¹ s⁻¹.

B4: AHF21190 (Fab, V domains shown, not shown: small tags and cut ends)
VH: B1 VH with S52N, H114V
VL: B1 VL with S57H
On to B4, for which the equilibrium dissociation constant (Kd) was found to be 0.68 nM, the off-rate constant (koff) came to 0.000152 s⁻¹ and the association rate constant (kon) was determined as 223000 M⁻¹ s⁻¹.

B5: AHF21186 (Fab, V domains shown, not shown: small tags and cut ends)
VH: B1 VH with S52N
VL: B1 VL with S57H, S102T
For the molecule B5, the equilibrium dissociation constant (Kd) came to 0.485 nM, the koff stood at 0.000148 s⁻¹ and the on-rate constant (kon) is 306000 M⁻¹ s⁻¹.

B6: AHF21201 (Fab, V domains shown, not shown: small tags and cut ends)
VH: B1 VH with S52N
VL: B1 VL with S57H, S102G
For the molecule B6, the equilibrium dissociation constant (Kd) was determined as 0.44 nM, the koff came to 0.000151 s⁻¹ and the kon was 344000 M⁻¹ s⁻¹.

B7: AHF21195 (Fab, V domains shown, not shown: small tags and cut ends)
VH: B1 VH with S52N, L101K, H114V
VL: B1 VL
Consider B7, for which the equilibrium dissociation constant (Kd) came to 0.992 nM, the off-rate constant (koff) turned out to be 0.000192 s⁻¹ and the on-rate (kon) is 193000 M⁻¹ s⁻¹.

B8: AHF21194 (Fab, V domains shown, not shown: small tags and cut ends)
VH: B1 VH with S52N, H114V
VL: B1 VL
For B8, the Kd came out at 0.627 nM, the koff was determined as 0.000133 s⁻¹ and the on-rate (kon) was determined as 212000 M⁻¹ s⁻¹.

B9: AHF21187 (Fab, V domains shown, not shown: small tags and cut ends)
VH: B1 VH with S52N, L101K, H114V
VL: B1 VL with L30T, S57H, S102G
As for B9, the dissociation constant Kd turned out to be 0.769 nM, the koff worked out at 0.000132 s⁻¹ and the kon was 172000 M⁻¹ s⁻¹.

B10: AHF21199 (Fab, V domains shown, not shown: small tags and cut ends)
VH: B1 VH with S52N, H114V
VL: B1 VL with L30T, S57H, S102G
As for B10, the equilibrium dissociation constant (Kd) amounted to 0.395 nM, the off-rate constant (koff) is 8.18e-05 s⁻¹ and the kon was found to be 207000 M⁻¹ s⁻¹.

B11: AHF21200 (Fab, V domains shown, not shown: small tags and cut ends)
VH: B1 VH with S52N, L101K, H114V
VL: B1 VL with L30T, G96P
Consider B11, for which the dissociation constant Kd worked out at 0.875 nM, the dissociation rate constant (koff) was 0.000127 s⁻¹ and the association rate constant (kon) was found to be 146000 M⁻¹ s⁻¹.
